Test results from patent US20230322908A1 (AC IMMUNE, published 2023).

T1: TP-51 peptide (aa 352-414 of SEQ ID NO:1) (human)
T1 construct: Synthetic peptide (Pepscan)
T1 peptide: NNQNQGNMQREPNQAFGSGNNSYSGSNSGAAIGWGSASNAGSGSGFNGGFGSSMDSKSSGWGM


Legend:
[1] = molecular target: T2, recombinant human aggregated full-length TDP-43 (human, UniProt Q13148 1-414); assay: SPR, immobilized aggregated TDP-43
T2 construct: also called aggregated TDP-43; aggregated FL TDP-43
Description: (§1) Binding avidity to soluble or aggregated FL TDP-43 was evaluated by determing the dissociation constants (KD) using surface plasmon resonance (SPR; Biacore T200, GE Healthcare Life Sciences). Recombinant human soluble or aggregated FL TDP-43 were immobilized on a CM5 Series S sensor chip (GE Healthcare Life Sciences) by amine coupling. Soluble TDP-43 was immobilized at a concentration of 5 µg/ml in 10 mM sodium acetate (pH 4.5) with a flow rate of 5 µl/min for 420 seconds resulting in an immobilization level of 150 RU. Aggregated TDP-43 was immobilized at a concentration of 50 µg/ml in 10 mM sodium acetate (pH 4.5) with a flow rate of 5 µl/min for 840 seconds resulting in an immobilization level of 110 RU. Biotinylated TP-73 peptide (aa 181-190 of SEQ ID NO:1) was immobilized on a Series S Sensor Chip SA (GE Healthcare Life Sciences) at a concentration of 5 µg/ml in PBS-P⁺ with a flow rate of 5 µl/min for 30 seconds resulting in an immobilization level of 400 RU. […] The antibodies were injected at a flow rate of 50 µl/min for 90 seconds contact time and 700 seconds dissociation phase followed by three regenerations with 10 mM glycine-HCl pH 1.7. For the optimized SPR protocol the antibodies were diluted 3-fold starting from 300 nM and dilute down to 1.2 nM and injected for 300 seconds at 30 µl/min followed by 600 seconds dissociation. The surface was regenerated by one injection with 10 mM glycine-HCl pH 1.7. Results obtained from binding kinetics were double-referenced using a blank flow cell and a buffer cycle and were evaluated with a global 1:1 fitting model with RI. Avidities for 11 antibodies and two Fab fragments are depicted in Table 8. […] In addition, some antibodies show preferential binding to aggregated TDP-43 as compared with soluble TDP-43.

[2] = molecular target: T1, TP-51 peptide (aa 352-414 of SEQ ID …); assay: SPR 8K, mAb captured, TP-51 injected
Description: The instrument was primed with running buffer PBS-P+. Fc 1-2 of channels 1-8 (8 K) were activated with a fresh solution of EDC/NHS(Amine Coupling Kit, 1:1 ratio of both reagents, GE Healthcare Life Sciences, BR-1006-33) at 10 µL/min for 420 sec and goat anti-human antibody (GE Healthcare Life Sciences, 29234600) was immobilized at 25 µg/mL in 10 mM sodium acetate pH 5 for 420 sec. Next, all Fc were quenched with 1 M ethanol amine(GE Healthcare Life Sciences, BR-1006-33), for 420 sec. Any non-covalently bound antibodies were removed by two regenerations with 10 mM Glycine-HCl pH 1.7 for 30 sec. Immobilization levels were evaluated following ethanolamine quenching (10000 RU for all channels).
Each cycle started with non-covalent capture of humanized variants which were diluted in running buffer to a final concentration of 2 µg/mL and injected for 60 sec with a flow rate of 10 µL/min. TDP-43 mAbs were captured on channels 1-8, leaving Fc 1 as a blank Fc. Capture levels were evaluated following a 120 sec stabilization period after each mAb injection and ranged from 300-500 RU.
Injections of TP-51 peptide (Pepscan) were performed in single-cycle kinetics with increasing concentrations ranging from 1.2-100 nM prepared from serial 3-fold dilutions. Injections were performed with contact times of 300 sec/injection at a flow rate of 25 µL/min. A dissociation phase of 3600 sec followed the final injection. Sensor surface was regenerated by one injection of 10 mM Glycine-HCl pH 1.7 at a flow rate of 10 µL/min for 120 sec, followed by a stabilization period of 300 sec. Results obtained from single-cycle kinetics were double-referenced using the blank Fc 1 and buffer cycles and evaluated by Biacore 8 K evaluation software with 1:1 kinetic fit model with RI and global Rmax. The following kinetic parameters were obtained: association rate constant (ka), dissociation rate constant (kd), affinity constant (KD) and saturation response (Rmax).

[3] = molecular target: T3, recombinant human full-length TDP-43 (TAR DNA-binding protein 43), soluble (human, UniProt Q13148 1-414); assay: SPR 8K, immobilized soluble TDP-43
T3 construct: Used on Luminex beads, coated on ELISA plates, and immobilized or injected in SPR; also called FL TDP-43; TDP-43 protein
Description: The instrument was primed with running buffer PBS-P+ and flow cells (Fc) 1 and 2 of channels 1-8 were activated with a fresh solution of EDC/NHS (Amine Coupling Kit, 1:1 ratio of both reagents, GE Healthcare Life Sciences, BR-1006-33) at 10 µL/min for 420 sec. Soluble TDP-43 (Selvita) was diluted in sodium acetate pH 4.5 to a final concentration of 5 µg/mL and injected for 900 sec with a flow rate of 5 µL/min on Fc 2. All flow cells were quenched with 1 M ethanol amine (GE Healthcare Life Sciences, BR-1006-33), at 10 µL/min for 420 sec. Immobilization levels after ethanolamine quenching were 680 RU on all eight channels. Prior to analysis, two Startup cycles were run. Increasing mAbs concentrations were injected in single-cycle kinetics ranging from 1.2 to 100 nM, prepared from a 3-fold serial dilution in running buffer, with a contact time of 300 sec and a dissociation time of 900 sec at a flow rate of 30 µL/min. Each cycle was followed by one regeneration using 10 mM Glycine-HCl pH 1.7 with a contact time of 30 sec at 30 µL/min, followed by a stabilization period of 300 sec. Results obtained from single-cycle kinetics were double-referenced using the blank Fc 1 and buffer cycles and evaluated using Biacore 8 K evaluation software using the 1:1 kinetic fit model with RI and global Rmax. The following kinetic parameters were obtained: association rate constant (ka), dissociation rate constant (kd), affinity constant (KD) and saturation response (Rmax).

[4] = molecular target: T3, recombinant human full-length TDP-43 …; assay: SPR, immobilized soluble TDP-43
Description: as §1

T2 sequence (Q13148 whole entry): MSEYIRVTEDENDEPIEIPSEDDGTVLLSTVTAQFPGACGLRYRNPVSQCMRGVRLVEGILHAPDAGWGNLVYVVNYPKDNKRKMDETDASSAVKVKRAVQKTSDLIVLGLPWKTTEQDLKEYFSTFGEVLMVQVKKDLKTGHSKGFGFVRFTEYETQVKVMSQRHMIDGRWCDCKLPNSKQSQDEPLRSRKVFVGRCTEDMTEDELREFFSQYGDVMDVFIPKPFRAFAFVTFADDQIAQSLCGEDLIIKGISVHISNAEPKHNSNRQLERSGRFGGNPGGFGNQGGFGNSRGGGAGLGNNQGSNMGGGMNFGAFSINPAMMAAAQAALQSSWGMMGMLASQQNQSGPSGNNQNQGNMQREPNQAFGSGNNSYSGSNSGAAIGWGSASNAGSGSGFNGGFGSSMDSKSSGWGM
T3 sequence (Q13148 whole entry): as above

Kd [1] | koff [1] | kon [1] | Kd [2] | koff [2] | kon [2] | Kd [3] | koff [3] | kon [3] | Kd [4] | koff [4] | kon [4] | Binder
4.64 nM | 0.00585 s⁻¹ | 1.26e+06 M⁻¹ s⁻¹ | – | – | – | – | – | – | – | – | – | ACI-7069-642A10-Ab1 (antibody, mouse IgG1, V domains shown, Mouse IgG1, kappa, from hybridoma; also called 642A10B11) VH: QVQLQQPGAELVKPGASVKLSCKASGYTFTKYWMHWVKQRPGQGLEWIGEINPSNGRTNYNEKFKSKATLTVDKSSSTAYMQLSSLTSEDSAVYYCARYMDYWGQGTSVTVSS VL: not shown
– | – | – | 9.4 nM | 0.0011 s⁻¹ | 120000 M⁻¹ s⁻¹ | 1.01 nM | 3e-05 s⁻¹ | 30000 M⁻¹ s⁻¹ | – | – | – | hACI-7069-633B12-Ab1_H19L14 (IgG4) (antibody, V domains shown) VH: QVQLVQSGAEVKKPGASVKVSCKTSGFTFTEYSMHWVRQAPGQRLEWIGGINPGNAGTSYNQKFKGRVTITVDTSASTAYMELSSLRSEDTAVYYCARESWGQGTTVTVSS VL: DVVMTQSPLSLPVTLGQPASISCKSSQSLLHSDAKTYLNWLQQRPGQSPRRLIYLVSKLDSGVPDRFSGSGSGTDFTLKISRVEAEDLGVYYCFQGTHFPHTFGQGTKLEIK
– | – | – | 1.9 nM | 0.00023 s⁻¹ | 120000 M⁻¹ s⁻¹ | 0.431 nM | 1.4e-05 s⁻¹ | 33000 M⁻¹ s⁻¹ | – | – | – | hACI-7069-633B12-Ab1_H19L18 (IgG4) (antibody, V domains shown) VH: QVQLVQSGAEVKKPGASVKVSCKTSGFTFTEYSMHWVRQAPGQRLEWIGGINPGNAGTSYNQKFKGRVTITVDTSASTAYMELSSLRSEDTAVYYCARESWGQGTTVTVSS VL: DVVMTQSPLSLPVTLGQPASISCKSSQSLLHSDAKTYLNWLQQRPGQSPRRLIYLVSKLDSRVPDRFSGSGSGTDFTLKISRVEAEDLGVYYCFQGTHFPHTFGQGTKLEIK
– | – | – | 8.3 nM | 0.00094 s⁻¹ | 110000 M⁻¹ s⁻¹ | 1.2 nM | 3.5e-05 s⁻¹ | 29000 M⁻¹ s⁻¹ | – | – | – | hACI-7069-633B12-Ab1_H15L14 (IgG4) (antibody, V domains shown) VH: QVQLVQSGAEVKKPGASVKVSCKASGFTFTEYSMHWVRQAPGQRLEWMGGINPGNAGTSYNQKFKGRVTITVDTSASTAYMELSSLRSEDTAVYYCARESWGQGTTVTVSS VL: DVVMTQSPLSLPVTLGQPASISCKSSQSLLHSDAKTYLNWLQQRPGQSPRRLIYLVSKLDSGVPDRFSGSGSGTDFTLKISRVEAEDLGVYYCFQGTHFPHTFGQGTKLEIK
– | – | – | 9 nM | 0.0012 s⁻¹ | 130000 M⁻¹ s⁻¹ | 1.34 nM | 4.2e-05 s⁻¹ | 31000 M⁻¹ s⁻¹ | – | – | – | hACI-7069-633B12-Ab1_H17L14 (IgG4) (antibody, V domains shown) VH: QVQLVQSGAEVKKPGASVKVSCKASGFTFTEYSMHWVKQAPGQRLEWMGGINPGNAGTSYNQKFKGRVTITVDTSASTAYMELSSLRSEDTAVYYCARESWGQGTTVTVSS VL: DVVMTQSPLSLPVTLGQPASISCKSSQSLLHSDAKTYLNWLQQRPGQSPRRLIYLVSKLDSGVPDRFSGSGSGTDFTLKISRVEAEDLGVYYCFQGTHFPHTFGQGTKLEIK
– | – | – | 2.9 nM | 0.00026 s⁻¹ | 90000 M⁻¹ s⁻¹ | 0.684 nM | 1.9e-05 s⁻¹ | 27000 M⁻¹ s⁻¹ | – | – | – | hACI-7069-633B12-Ab1_H20L19 (IgG4) (antibody, V domains shown) VH: EVQLVQSGAEVKKPGASVKVSCKTSGFTFTEYSMHWVRQAPGQRLEWIGGINPGNAGTSYNQKFKGRVTITVDTSASTAYMELSSLRSEDTAVYYCARESWGQGTTVTVSS VL: DVVMTQSPLSLPVTLGQPASISCKSSQSLLHSDAKTYLNWLQQRPGQSPKRLIYLVSKLDSRVPDRFSGSGSGTDFTLKISRVEAEDLGVYYCFQGTHFPHTFGQGTKLEIK
– | – | – | 9.9 nM | 0.0013 s⁻¹ | 140000 M⁻¹ s⁻¹ | 0.605 nM | 3.3e-05 s⁻¹ | 55000 M⁻¹ s⁻¹ | – | – | – | hACI-7069-633B12-Ab1_H16L14 (IgG4) (antibody, V domains shown) VH: EVQLVQSGAEVKKPGASVKVSCKASGFTFTEYSMHWVRQAPGQRLEWMGGINPGNAGTSYNQKFKGRVTITVDTSASTAYMELSSLRSEDTAVYYCARESWGQGTTVTVSS VL: DVVMTQSPLSLPVTLGQPASISCKSSQSLLHSDAKTYLNWLQQRPGQSPRRLIYLVSKLDSGVPDRFSGSGSGTDFTLKISRVEAEDLGVYYCFQGTHFPHTFGQGTKLEIK
– | – | – | 13.1 nM | 0.00093 s⁻¹ | 70000 M⁻¹ s⁻¹ | 1.38 nM | 3.5e-05 s⁻¹ | 26000 M⁻¹ s⁻¹ | – | – | – | hACI-7069-633B12-Ab1_H19L17 (IgG4) (antibody, V domains shown) VH: QVQLVQSGAEVKKPGASVKVSCKTSGFTFTEYSMHWVRQAPGQRLEWIGGINPGNAGTSYNQKFKGRVTITVDTSASTAYMELSSLRSEDTAVYYCARESWGQGTTVTVSS VL: DVVMTQSPLSLPVTLGQPASISCKSSQSLLHSDAKTYLNWLLQRPGQSPRRLIYLVSKLDSGVPDRFSGSGSGTDFTLKISRVEAEDLGVYYCFQGTHFPHTFGQGTKLEIK
– | – | – | 11.1 nM | 0.0014 s⁻¹ | 130000 M⁻¹ s⁻¹ | 1.74 nM | 4.4e-05 s⁻¹ | 25000 M⁻¹ s⁻¹ | – | – | – | hACI-7069-633B12-Ab1_H20L14 (IgG4) (antibody, V domains shown) VH: EVQLVQSGAEVKKPGASVKVSCKTSGFTFTEYSMHWVRQAPGQRLEWIGGINPGNAGTSYNQKFKGRVTITVDTSASTAYMELSSLRSEDTAVYYCARESWGQGTTVTVSS VL: DVVMTQSPLSLPVTLGQPASISCKSSQSLLHSDAKTYLNWLQQRPGQSPRRLIYLVSKLDSGVPDRFSGSGSGTDFTLKISRVEAEDLGVYYCFQGTHFPHTFGQGTKLEIK
21.8 nM | 0.00176 s⁻¹ | 94000 M⁻¹ s⁻¹ | – | – | – | – | – | – | 21.8 nM | 0.00267 s⁻¹ | 128000 M⁻¹ s⁻¹ | 642D12B4 Fab (Fab, V domains shown, Fab fragment; also called Fab fragment of ACI-7069-642D12-Ab1) VH: EVQLQQSGAELVKPGASVRLSCTASGFNIKDPYMHWVRQRPKQGLEWIGRIDPADGNTKYDPKFQGKATLTADTSSNVAYLHLSSLTSEDTAVYYCARFYGSSHWYFDVWGAGTTVTVSS VL: DIKMTQSPSSMYASLGERVTITCKASQDIKRYLSWYQQKPWKSPKILIYYATSLADGVPSRFSGTGSGQDYSLTISSLESDDVATYYCLQQGESPYTFGGGTKLEIK
– | – | – | 1.7 nM | 0.00021 s⁻¹ | 130000 M⁻¹ s⁻¹ | 0.238 nM | 9.9e-06 s⁻¹ | 42000 M⁻¹ s⁻¹ | – | – | – | cACI-7069-633B12-Ab1 (human IgG4 S228P chimeric) (antibody, V domains shown, Murine variable domains on a human IgG4 (S228P) constant domain and human kappa; also called chimeric antibody) VH: EVQLQQSGPELVKPGASVKISCKTSGFTFTEYSMHWVKQSHGKSLEWIGGINPNNGGTSYNQKFKGKATLTVDKSSSTAYMELRSLTSEDSAVYYCARESWGQGTTLTVSS VL: not shown
